Measured values as given in US20040014194A1, “Beta-secretase crystals and methods for preparing and using the same” (Schering Corporation, priority 2002, published 2004).

Target: T1, β-secretase purified from Sf-9 cells (Homo sapiens, UniProt P56817)
T1 construct: made in house; host or cells: Sf9 insect cells, baculovirus (Bac-to-Bac), secreted into the medium
Test: HPLC assay of β-secretase enzymatic activity with a peptide substrate derived from "Swedish" amyloid protein peptide
Type: biochemical
Conditions: proBACE compared with mature BACE
Protocol: To assess the functionality of β-secretase purified from Sf-9 cells, an HPLC assay was developed using a peptide substrate derived from the sequence of “Swedish” amyloid protein peptide (Dreyer et al., (1994) Eur J. Biochem 224: 265-271). In these assays, ProBACE (SEQ ID NO: 2) and mature BACE (SEQ ID NO: 1) were tested.

Molecule	enzymatic activity with substrate Biotin-KSEVNL*DAEFRK-Fluorescein
proBACE: immature, soluble human β-secretase with amino-terminal propeptide, expressed in Sf9 insect cells (protein, listed as Homo sapiens) TQHGIRLPLRSGLGGAPLGLRLPRETDEEPEEPGRRGSFVEMVDNLRGKSGQGYYVEMTVGSPPQTLNILVDTGSSNFAVGAAPHPFLHRYYQRQLSSTYRDLRKGVYVPYTQGKWEGELGTDLVSIPHGPNVTVRANIAAITESDKFFINGSNWEGILGLAYAEIARPDDSLEPFFDSLVKQTHVPNLFSLQLCGAGFPLNQSEVLASVGGSMIIGGIDHSLYTGSLWYTPIRREWYYEVIIVRVEINGQDLKMDCKEYNYDKSIVDSGTTNLRLPKKVFEAAVKSIKAASSTEKFPDGFWLGEQLVCWQAGTTPWNIFPVISLYLMGEVTNQSFRITILPQQYLRPVEDVATSQDDCYKFAISQSSTGTVMGAVIMEGFYVVFDRARKRIGFAVSACHVHDEFRTAAVEGPFVTLDMEDCGYNIPQTDESTLE	equivalent
mature BACE: glycosylated, soluble fragment of mature human BACE, autoprocessed from proBACE at pH 4.0 (protein, listed as Homo sapiens, glycosylated, glycosylated, soluble fragment of mature human BACE, autoprocessed from proBACE at pH 4.0) ETDEEPEEPGRRGSFVEMVDNLRGKSGQGYYVEMTVGSPPQTLNILVDTGSSNFAVGAAPHPFLHRYYQRQLSSTYRDLRKGVYVPYTQGKWEGELGTDLVSIPHGPNVTVRANIAAITESDKFFINGSNWEGILGLAYAEIARPDDSLEPFFDSLVKQTHVPNLFSLQLCGAGFPLNQSEVLASVGGSMIIGGIDHSLYTGSLWYTPIRREWYYEVIIVRVEINGQDLKMDCKEYNYDKSIVDSGTTNLRLPKKVFEAAVKSIKAASSTEKFPDGFWLGEQLVCWQAGTTPWNIFPVISLYLMGEVTNQSFRITILPQQYLRPVEDVATSQDDCYKFAISQSSTGTVMGAVIMEGFYVVFDRARKRIGFAVSACHVHDEFRTAAVEGPFVTLDMEDCGYNIPQTDESTLE	equivalent
